From the supplement of paper PMC10567573 come the findings set out here.

Sequences and labels used below:
B1: PCDHGA10 (parent)
chain: FGIEIEVTDINDNAPKFQAENLDV
B2: FUT8 (parent)
chain: NWRYATGGWETVFRPVSETCTDRS
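Also: lentivirally expressed fusions sorted by FACS into six bins by GFP to DsRed ratio, PSI derived from sequencing read proportions per bin multiplied by bin number.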

Variants of B1 are the subject of the first data set. Put plainly: protein stability index of a GFP-peptide fusion (GPS, HEK-293T) (PSI 1-6); higher = more stable. The settings on record: c terminus: a fixed tail appended.
Turning to FGIFIEVTDINDNAPKFQAENLDV, the protein stability index is 1.66. With FGINIEVTDINDNAPKFQAENLDV, the protein stability index came to 3.34. Same read-out and setting: next, FGIPIEVTDINDNAPKFQAENLDV: 4.33; FGIMIEVTDINDNAPKFQAENLDV: 1.73. Regarding FGITIEVTDINDNAPKFQAENLDV, the protein stability index is 2.12. Still for that read-out and setting: the result for FGIEIWVTDINDNAPKFQAENLDV reads 2.9; that for FGIEIHVTDINDNAPKFQAENLDV, 2.19. On the same count and under the same terms, next, FGIEILVTDINDNAPKFQAENLDV: 1.86; FGIEIIVTDINDNAPKFQAENLDV: 2.05.

The next data set covers variants of B2. Described as above. The settings on record: c terminus: a fixed tail appended.
With NWRYHTGGWETVFRPVSETCTDRS, the protein stability index turned out to be 3.69.

As to NWRYPTGGWETVFRPVSETCTDRS, the protein stability index was 1.48. On the same count and under the same terms, the result for NWRYTTGGWETVFRPVSETCTDRS reads 2.33; that for NWRYFTGGWETVFRPVSETCTDRS, 2.43; that for NWRYKTGGWETVFRPVSETCTDRS, 3.36. On the same count and under the same terms, the result for NWRYITGGWETVFRPVSETCTDRS reads 1.39. On to NWRYRTGGWETVFRPVSETCTDRS, for which the protein stability index turned out to be 2.28. The same measure, in the same setting: the result for NWRYSTGGWETVFRPVSETCTDRS reads 2.36; that for NWRYMTGGWETVFRPVSETCTDRS, 3.05. For NWRYYTGGWETVFRPVSETCTDRS, the protein stability index came to 2.94.

Turning to NWRYLTGGWETVFRPVSETCTDRS, the protein stability index stood at 2.66. Take NWRYWTGGWETVFRPVSETCTDRS: the protein stability index turned out to be 3.33. Still for that read-out and setting: the result for NWRYQTGGWETVFRPVSETCTDRS reads 2.91. On the same count and under the same terms, next, NWRYCTGGWETVFRPVSETCTDRS: 1.05; NWRYDTGGWETVFRPVSETCTDRS: 3.2; NWRYETGGWETVFRPVSETCTDRS: 2.82. The same measure, in the same setting: the result for NWRYNTGGWETVFRPVSETCTDRS reads 2.95; that for NHRYATGGWETVFRPVSETCTDRS, 4. As for NYRYATGGWETVFRPVSETCTDRS, the protein stability index amounted to 2.74. With NMRYATGGWETVFRPVSETCTDRS, the protein stability index came to 3.52.

For NERYATGGWETVFRPVSETCTDRS, the protein stability index is 3.94. The same measure, in the same setting: next, NNRYATGGWETVFRPVSETCTDRS: 3.55.

For NQRYATGGWETVFRPVSETCTDRS, the protein stability index was 3.96. For NPRYATGGWETVFRPVSETCTDRS, the protein stability index was 4.16. On the same count and under the same terms, next, NARYATGGWETVFRPVSETCTDRS: 3.77. NTRYATGGWETVFRPVSETCTDRS: the protein stability index was 3.83. The same measure, in the same setting: next, NVRYATGGWETVFRPVSETCTDRS: 3.26. On the same count and under the same terms, the result for NCRYATGGWETVFRPVSETCTDRS reads 2.52; that for NSRYATGGWETVFRPVSETCTDRS, 3.25; that for NGRYATGGWETVFRPVSETCTDRS, 3.72. With NFRYATGGWETVFRPVSETCTDRS, the protein stability index came to 3.12.

Regarding NDRYATGGWETVFRPVSETCTDRS, the protein stability index turned out to be 3.72.

For the variant NWTYATGGWETVFRPVSETCTDRS, the protein stability index worked out at 3.09. For NWPYATGGWETVFRPVSETCTDRS, the protein stability index was 3.06. Still for that read-out and setting: the result for NWDYATGGWETVFRPVSETCTDRS reads 3.62; that for NWGYATGGWETVFRPVSETCTDRS, 3; that for NWQYATGGWETVFRPVSETCTDRS, 3.15.

Turning to NWLYATGGWETVFRPVSETCTDRS, the protein stability index was 2.69. Same read-out and setting: next, NWIYATGGWETVFRPVSETCTDRS: 2.32; NWFYATGGWETVFRPVSETCTDRS: 1.97. Still for that read-out and setting: next, NWEYATGGWETVFRPVSETCTDRS: 3.75. As for NWVYATGGWETVFRPVSETCTDRS, the protein stability index worked out at 2.85. As to NWMYATGGWETVFRPVSETCTDRS, the protein stability index came out at 2.44. On the same count and under the same terms, the result for NWNYATGGWETVFRPVSETCTDRS reads 3.83.

Regarding NWCYATGGWETVFRPVSETCTDRS, the protein stability index was 2.76. Regarding NWWYATGGWETVFRPVSETCTDRS, the protein stability index was determined as 2.46.

With NWAYATGGWETVFRPVSETCTDRS, the protein stability index was determined as 3.58. Same read-out and setting: next, NWSYATGGWETVFRPVSETCTDRS: 2.69; NWHYATGGWETVFRPVSETCTDRS: 2.85. Still for that read-out and setting: the result for NWYYATGGWETVFRPVSETCTDRS reads 1.76. The same measure, in the same setting: next, NWRVATGGWETVFRPVSETCTDRS: 3.42; NWRPATGGWETVFRPVSETCTDRS: 3.85. In the case of NWRRATGGWETVFRPVSETCTDRS, the protein stability index was 3.07. Still for that read-out and setting: next, NWRMATGGWETVFRPVSETCTDRS: 2.16; NWREATGGWETVFRPVSETCTDRS: 4.67; NWRCATGGWETVFRPVSETCTDRS: 2.6. Still for that read-out and setting: the result for NWRDATGGWETVFRPVSETCTDRS reads 3.13; that for NWRLATGGWETVFRPVSETCTDRS, 2.36. The same measure, in the same setting: the result for NWRNATGGWETVFRPVSETCTDRS reads 3.32. NWRHATGGWETVFRPVSETCTDRS: the protein stability index is 3.39.

Take NWRTATGGWETVFRPVSETCTDRS: the protein stability index was found to be 3.27.

Consider NWRWATGGWETVFRPVSETCTDRS, for which the protein stability index came to 2.98. Still for that read-out and setting: next, NWRSATGGWETVFRPVSETCTDRS: 3.66. On the same count and under the same terms, next, NWRAATGGWETVFRPVSETCTDRS: 3.42; NWRQATGGWETVFRPVSETCTDRS: 3.35; NWRGATGGWETVFRPVSETCTDRS: 4.34. On the same count and under the same terms, next, NWRIATGGWETVFRPVSETCTDRS: 2.63; NWRFATGGWETVFRPVSETCTDRS: 2.45. For EWRYATGGWETVFRPVSETCTDRS, the protein stability index is 2.44. The same measure, in the same setting: next, TWRYATGGWETVFRPVSETCTDRS: 1.68. Still for that read-out and setting: next, CWRYATGGWETVFRPVSETCTDRS: 2.35; HWRYATGGWETVFRPVSETCTDRS: 2.74; QWRYATGGWETVFRPVSETCTDRS: 4.02. On the same count and under the same terms, the result for AWRYATGGWETVFRPVSETCTDRS reads 1.16. For the variant MWRYATGGWETVFRPVSETCTDRS, the protein stability index was determined as 1.12. Still for that read-out and setting: next, SWRYATGGWETVFRPVSETCTDRS: 2.12. Same read-out and setting: next, KWRYATGGWETVFRPVSETCTDRS: 2.4. The same measure, in the same setting: the result for WWRYATGGWETVFRPVSETCTDRS reads 1.53. Regarding LWRYATGGWETVFRPVSETCTDRS, the protein stability index was 1.99.

On to DWRYATGGWETVFRPVSETCTDRS, for which the protein stability index is 1.7. The same measure, in the same setting: next, YWRYATGGWETVFRPVSETCTDRS: 2.88; GWRYATGGWETVFRPVSETCTDRS: 2.12. Same read-out and setting: the result for RWRYATGGWETVFRPVSETCTDRS reads 2.23; that for IWRYATGGWETVFRPVSETCTDRS, 3.1; that for VWRYATGGWETVFRPVSETCTDRS, 1.83.
